# System: Ras
# Test: In vitro GEF assay (32P-α-GTP binding to Ras)
# Type: biochemical
# Experimental: Full length (GRF4) or CDC25-deleted (ΔCDC25) GRF4, or GRF2, each Flag-tagged, were immunoprecipitated from transfected Hek-293T cells using anti Flag antibodies. Equal amounts of immunoprecipitates were washed with GEF lysis buffer, equilibrated with GEF assay buffer and incubated with 32P-α-GTP (diluted in cold GTP) plus 100 ng of Ras for 30 min. Bound and unbound radiolabelled GTP were then separated by filtration, and the amount of bound GTP determined by scintillation counting, as detailed in the Method section. Fold Ras activation was compared to the activation of Ras in the absence of GRFs (which was set to 1).
# GRF4 has a RasGRF(GEF) activity/function. To show its GEF activity, we performed in-vitro GEF assays. Briefly, GST-Ras was added alone (tubes 1 and 2) or along with GST-CDC25, or immunoprecipitated full-length of GRF4 (tubes 3 and 4). All tubes contained assay mixture including cold GTP and P32 alpha GTP. The exchange reactions were stopped at the indicated times. The stopped reaction mixtures were passed through nitrocellulose filters which were then washed with stop buffer to separate bound and unbound nucleotides. Filters were dried and then quantified by scintillation counting to determine bound CPM. The labeled nucleotides trapped on the washed filters were assumed to be Ras-associated. The difference in bound CPM over 30 minute period was determined for reactions where GST-Ras was added alone (it is the difference in bound CPM between tubes 1 and 2) and where GST-Ras was added with a GEF (it is the difference in bound CPM between tubes 3 and 4).
molecule,measurement,value
isolated CDC25 domain of GRF4: Isolated CDC25 catalytic domain of GRF4 (protein) SLLQLSTVEVATQLSMRNFELFRNIEPTEYIDDLFKLRSKTSCANLKRFEEVINQETFWVASEILRETNQLKRMKIIKHFIKIALHCRECKNFNSMFAIISGLNLAPVARLRTTWEKLPNKYEKLFQDLQDLFDPSRNMAKYRNVLNSQNLQPPIIPLFPVIKKDLTFLHEGNDSKVDGLVNFEKLRMIAKEIRHVGRMASVNMDPALMFRTRKKKWRSLGSLSQGSTNATVLDVAQTGGHKKRVRRSSFLNAKKLYEDAQMARKVKQYLSNLELEMDEESLQTLSLQCEPATNT,In vitro GEF activity on Ras,unable to demonstrate significant activation

# Source: patent publication US20020143164A1, “Ras activator nucleic acid molecules, polypeptides and methods of use” (priority 1999, published 2002)
